Experimental data from the supplement of paper PMC9112550, “Optimization of the antimicrobial peptide Bac7 by deep mutational scanning” (BMC Biology, 2022).

test system: Escherichia coli TOP10; test: shrunken log2 fold change of peptide-encoding DNA abundance (4.5 h post-induction vs induction); higher = less antimicrobial activity (less host growth inhibition); details: time post-induction: 4.5 h; library: site-saturation at positions 5, 18, 19, 20
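Further: peptides expressed intracellularly from a pBAD plasmid library in pooled LB shake-flask culture, induced with 0.3% L-arabinose, DNA abundance read by NGS, three biological replicates, DESeq2 with apeglm shrinkage.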

Sequence	shrunken log2 fold change
RRIRERPPRLPRPRPRPACIPRP	-0.0281
RRIRYRPPRLPRPRPRPQSYPRP	-0.0246
RRIRNRPPRLPRPRPRPPWTPRP	0.272
RRIRQRPPRLPRPRPRPYIDPRP	-0.606
RRIRSRPPRLPRPRPRPSNIPRP	-0.484
RRIRYRPPRLPRPRPRPMNFPRP	-0.0135
RRIRTRPPRLPRPRPRPEPLPRP	0.0272
RRIRMRPPRLPRPRPRPELQPRP	-0.00152
RRIRNRPPRLPRPRPRPLMSPRP	-0.316
RRIRQRPPRLPRPRPRPWYQPRP	-0.000894
RRIRIRPPRLPRPRPRPQTYPRP	-0.636
RRIRRRPPRLPRPRPRPFRAPRP	0.251
RRIRWRPPRLPRPRPRPELPPRP	0.243
RRIRLRPPRLPRPRPRPTPFPRP	0.253
RRIRLRPPRLPRPRPRPQYRPRP	-0.188
RRIRWRPPRLPRPRPRPGFWPRP	0.494
RRIRPRPPRLPRPRPRPMPVPRP	0.0347
RRIRVRPPRLPRPRPRPCHPPRP	-0.0124
RRIRKRPPRLPRPRPRPPILPRP	0.0292
RRIRFRPPRLPRPRPRPGGRPRP	0.323
RRIRCRPPRLPRPRPRPCMRPRP	0.0312
RRIRDRPPRLPRPRPRPYDNPRP	-0.307
RRIRGRPPRLPRPRPRPDFNPRP	0.325
RRIRARPPRLPRPRPRPNQTPRP	0.064
RRIRDRPPRLPRPRPRPQNFPRP	-0.707

Sequence	shrunken log2 fold change
RRIRVRPPRLPRPRPRPHINPRP	-0.524
RRIRFRPPRLPRPRPRPQMWPRP	-0.0128
RRIRSRPPRLPRPRPRPLMYPRP	-0.197
RRIRIRPPRLPRPRPRPWDLPRP	-0.119
RRIRRRPPRLPRPRPRPKSEPRP	0.0316
RRIRHRPPRLPRPRPRPLLYPRP	-0.528
RRIRQRPPRLPRPRPRPRYDPRP	-0.0523
RRIRARPPRLPRPRPRPMEIPRP	0.146
RRIRVRPPRLPRPRPRPKHEPRP	-0.0072
RRIRKRPPRLPRPRPRPISDPRP	-0.0768
RRIRFRPPRLPRPRPRPMHRPRP	-0.0791
RRIRHRPPRLPRPRPRPYTCPRP	-0.0278
RRIRIRPPRLPRPRPRPLFFPRP	-0.374
RRIRFRPPRLPRPRPRPPNAPRP	0.353
RRIRSRPPRLPRPRPRPKSSPRP	-0.176
RRIRVRPPRLPRPRPRPDTNPRP	-0.479
RRIRLRPPRLPRPRPRPCLGPRP	-0.25
RRIRYRPPRLPRPRPRPAGTPRP	-0.0595
RRIRQRPPRLPRPRPRPFRLPRP	-0.00192
RRIRQRPPRLPRPRPRPHASPRP	-0.00783
RRIRARPPRLPRPRPRPKAFPRP	0.269
RRIRCRPPRLPRPRPRPSYVPRP	-0.786
RRIRSRPPRLPRPRPRPTHDPRP	0.221
RRIRRRPPRLPRPRPRPTPMPRP	1.08
RRIRFRPPRLPRPRPRPFWCPRP	-0.27

Sequence	shrunken log2 fold change
RRIRSRPPRLPRPRPRPACMPRP	0.159
RRIRWRPPRLPRPRPRPQYRPRP	0.00862
RRIRYRPPRLPRPRPRPYICPRP	-0.234
RRIRIRPPRLPRPRPRPVITPRP	-0.553
RRIRRRPPRLPRPRPRPLIDPRP	0.192
RRIRERPPRLPRPRPRPQEDPRP	-0.0088
RRIRLRPPRLPRPRPRPGSWPRP	0.18
RRIRERPPRLPRPRPRPEGIPRP	0.0236
RRIRCRPPRLPRPRPRPFLEPRP	-0.472
RRIRMRPPRLPRPRPRPRRFPRP	0.339
RRIRARPPRLPRPRPRPEMIPRP	0.0273
RRIRWRPPRLPRPRPRPVYTPRP	-0.242
RRIRYRPPRLPRPRPRPFDKPRP	-0.0924
RRIRERPPRLPRPRPRPWNTPRP	-0.00122
RRIRKRPPRLPRPRPRPTFTPRP	0.186
RRIRTRPPRLPRPRPRPTEAPRP	0.0502
RRIRIRPPRLPRPRPRPPWQPRP	1.02
RRIRIRPPRLPRPRPRPTCPPRP	0.00857
RRIRERPPRLPRPRPRPMQNPRP	0.168
RRIRLRPPRLPRPRPRPAKQPRP	0.0963
RRIRVRPPRLPRPRPRPWQGPRP	0.0284
RRIRLRPPRLPRPRPRPENKPRP	-0.328
RRIRGRPPRLPRPRPRPNVKPRP	0.292
RRIRSRPPRLPRPRPRPHGRPRP	-0.0222
RRIRFRPPRLPRPRPRPRHFPRP	0.0931

Sequence	shrunken log2 fold change
RRIRPRPPRLPRPRPRPLSKPRP	0.14
RRIRIRPPRLPRPRPRPNIMPRP	-0.947
RRIRERPPRLPRPRPRPPFWPRP	-0.0269
RRIRGRPPRLPRPRPRPTLTPRP	1.1
RRIRLRPPRLPRPRPRPYHIPRP	-0.713
RRIRKRPPRLPRPRPRPWQTPRP	0.146
RRIRTRPPRLPRPRPRPPRGPRP	0.607
RRIRWRPPRLPRPRPRPCTEPRP	-0.0149
RRIRWRPPRLPRPRPRPFFRPRP	0.33
RRIRWRPPRLPRPRPRPWRVPRP	-0.245
RRIRPRPPRLPRPRPRPIWDPRP	-0.0628
RRIRQRPPRLPRPRPRPICWPRP	0.0153
RRIRSRPPRLPRPRPRPSTEPRP	-0.0608
RRIRMRPPRLPRPRPRPKAMPRP	0.705
RRIRARPPRLPRPRPRPTKCPRP	0.141
RRIRNRPPRLPRPRPRPEVQPRP	0.0358
RRIRARPPRLPRPRPRPKSFPRP	0.0951
RRIRHRPPRLPRPRPRPDYPPRP	-0.111
RRIRIRPPRLPRPRPRPAHRPRP	-0.133
RRIRDRPPRLPRPRPRPIIWPRP	0.156
RRIRLRPPRLPRPRPRPCDKPRP	-0.304
RRIRMRPPRLPRPRPRPKMHPRP	0.42
RRIRIRPPRLPRPRPRPLDIPRP	-0.216
RRIRFRPPRLPRPRPRPSQCPRP	0.153
RRIRCRPPRLPRPRPRPCTQPRP	-0.887

Sequence	shrunken log2 fold change
RRIRLRPPRLPRPRPRPEASPRP	0.133
RRIRRRPPRLPRPRPRPMSTPRP	0.231
RRIRTRPPRLPRPRPRPAIFPRP	-0.0366
RRIRHRPPRLPRPRPRPKLPPRP	0.0191
RRIRKRPPRLPRPRPRPMKCPRP	0.0794
RRIRPRPPRLPRPRPRPMQRPRP	0.195
RRIRPRPPRLPRPRPRPIEYPRP	0.0392
RRIRGRPPRLPRPRPRPAIDPRP	0.568
RRIRPRPPRLPRPRPRPRCMPRP	0.0856
RRIRPRPPRLPRPRPRPIVQPRP	-0.135
RRIRMRPPRLPRPRPRPAHRPRP	0.444
RRIRHRPPRLPRPRPRPQIHPRP	-0.46
RRIRHRPPRLPRPRPRPMRMPRP	-0.00476
RRIRQRPPRLPRPRPRPYCKPRP	-0.257
RRIRPRPPRLPRPRPRPFMTPRP	-0.511
RRIRERPPRLPRPRPRPFIWPRP	0.0296
RRIRDRPPRLPRPRPRPASWPRP	0.805
RRIRFRPPRLPRPRPRPFPIPRP	-0.184
RRIRARPPRLPRPRPRPPPQPRP	1.31
RRIRKRPPRLPRPRPRPSHCPRP	-0.578
RRIRHRPPRLPRPRPRPTEDPRP	-0.00383
RRIRPRPPRLPRPRPRPQAMPRP	0.132
RRIRPRPPRLPRPRPRPRSHPRP	0.16
RRIRSRPPRLPRPRPRPYQYPRP	-1.11
RRIRMRPPRLPRPRPRPHPNPRP	0.299

Sequence	shrunken log2 fold change
RRIRARPPRLPRPRPRPKSPPRP	0.425
RRIRERPPRLPRPRPRPSCQPRP	-0.47
RRIRARPPRLPRPRPRPLNAPRP	0.486
RRIRSRPPRLPRPRPRPDAHPRP	0.0464
RRIRYRPPRLPRPRPRPYFFPRP	-0.792
RRIRHRPPRLPRPRPRPLIQPRP	-0.0847
RRIRCRPPRLPRPRPRPCVPPRP	-0.49
RRIRMRPPRLPRPRPRPALVPRP	0.327
RRIRYRPPRLPRPRPRPQAAPRP	-0.195
RRIRVRPPRLPRPRPRPIHVPRP	-0.155
RRIRERPPRLPRPRPRPWNVPRP	-0.0549
RRIRIRPPRLPRPRPRPACGPRP	0.271
RRIRFRPPRLPRPRPRPDMYPRP	-0.00804
RRIRYRPPRLPRPRPRPERVPRP	-0.0107
RRIRNRPPRLPRPRPRPHLTPRP	-0.0934
RRIRHRPPRLPRPRPRPVFKPRP	0.126
RRIRPRPPRLPRPRPRPTSTPRP	-0.0454
RRIRMRPPRLPRPRPRPLMSPRP	0.00915
RRIRFRPPRLPRPRPRPLRDPRP	0.717
RRIRMRPPRLPRPRPRPTDDPRP	0.637
RRIRIRPPRLPRPRPRPVMEPRP	-0.194
RRIRYRPPRLPRPRPRPPIPPRP	0.31
RRIRDRPPRLPRPRPRPMTGPRP	0.0274
RRIRERPPRLPRPRPRPRRLPRP	0.138
RRIRPRPPRLPRPRPRPNYYPRP	-0.468
